T1: P126(AA): PlGF mutant #1 (human)
T1 chain: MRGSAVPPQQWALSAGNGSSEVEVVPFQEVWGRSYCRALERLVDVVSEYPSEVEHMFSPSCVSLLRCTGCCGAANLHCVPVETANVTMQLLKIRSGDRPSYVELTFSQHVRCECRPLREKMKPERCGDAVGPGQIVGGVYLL

T2: P126(DE): recombinant PlGF wild type (human)
T2 construct: also called unaltered PlGF
T2 chain: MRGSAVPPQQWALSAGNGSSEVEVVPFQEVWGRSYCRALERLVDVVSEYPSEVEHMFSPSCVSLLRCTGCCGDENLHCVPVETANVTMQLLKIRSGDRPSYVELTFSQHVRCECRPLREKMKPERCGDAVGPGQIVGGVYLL

B1: Full length sFlt (soluble fms-like tyrosine kinase 1, sFlt-1), Scios Inc. Lot# 9225-89 (receptor)
chain: SKLKDPELSLKGTQHIMQAGQTLHLQCRGEAAHKWSLPEMVSKESERLSITKSACGRNGKQFCSTLTLNTAQANHTGFYSCKYLAVPTSKKKETESAIYIFISDTGRPFVEMYSEIPEIIHMTEGRELVIPCRVTSPNITVTLKKFPLDTLIPDGKRIIWDSRKGFIISNATYKEIGLLTCEATVNGHLYKTNYLTHRQTNTIIDVQISTPRPVKLLRGHTLVLNCTATTPLNTRVQMTWSYPDEKNKRASVRRRIDQSNSHANIFYSVLTIDKMQNKDKGLYTCRVRSGPSFKSVNTSVHIYDKAFITVKHRKQQVLETVAGKRSYRLSMKVKAFPSPEVVWLKDGLPATEKSARYLTRGYSLIIKDVTEEDAGNYTILLSIKQSNVFKNLTATLIVNVKPQIYEKAVSSFPDPALYPLGSRQILTCTAYGIPQPTIKWFWHPCNHNHSEARCDFCSNNEESFILDADSNMGNRIESITQRMAIIEGKNKMASTLVVADSRISGIYICIASNKVGTVGRNISFYITDVPNGFHVNLEKMPTEGEDLKLSCTVNKFLYRDVTWILLRTVNNRTMHYSISKQKMAITKEHSITLNLTIMNVSLQDSGTYACRARNVYTGEEILQKKEITIRGEHCNKKAVFSRISKFKSTRNDCTTQSNVKH
notes: also called recombinant sFlt
B2: P126(GAA): PlGF mutant #2 (ligand)
chain: MRGSAVPPQQWALSAGNGSSEVEVVPFQEVWGRSYCRALERLVDVVSEYPSEVEHMFSPSCVSLLRCTGCGGAANLHCVPVETANVTMQLLKIRSGDRPSYVELTFSQHVRCECRPLREKMKPERCGDAVGPGQIVGGVYLL

Key:
[1] = target: T1, P126(AA): PlGF mutant #1; assay: ELISA, coated PlGF, sFlt at 66.67 ng/mL, detected with RD-1 + RD-2 anti-sFlt
[2] = target: B2; assay: as above
[3] = target: T2, P126(DE): recombinant PlGF wild type; assay: as above
[4] = target: T1, P126(AA): PlGF mutant #1; assay: ELISA, coated PlGF, sFlt at 600 ng/mL, detected with RD-1 + RD-2 anti-sFlt
[5] = target: B2; assay: as above
[6] = target: T2, P126(DE): recombinant PlGF wild type; assay: as above
[7] = target: T1, P126(AA): PlGF mutant #1; assay: ELISA, coated PlGF, sFlt at 1800 ng/mL, detected with RD-1 + RD-2 anti-sFlt
[8] = target: B2; assay: as above
[9] = target: T2, P126(DE): recombinant PlGF wild type; assay: as above
[10] = target: T1, P126(AA): PlGF mutant #1; assay: ELISA, coated PlGF, sFlt at 200 ng/mL, detected with RD-1 + RD-2 anti-sFlt
[11] = target: B2; assay: as above
[12] = target: T2, P126(DE): recombinant PlGF wild type; assay: as above
[13] = target: B1; assay: ELISA, sFlt coated 0.5 ug/mL, PlGF in solution, detected with Rat-4
Protocol: High-binding microtiter plate was coated with recombinant sFlt at 0.5 ug/mL and blocked with BSA/PBS
Standard ELISA procedure consists of 1st plate incubation with diluted P126(DE) or P126(AA) or P126(GAA) in casein/PBS at various concentration, 2nd plate incubation with monoclonal anti-PlGF Rat-4 solution at 0.1 ug/mL, 3rd plate incubation with HRP conjugated donkey anti-Rat IgG at 1:4K dilution in casein/PBS and 4th plate incubation with 100 uL OPD substrate development for 25 C/30 min. 1st, 2nd and 3rd plate incubation step is at 37 C/15-20 min/shake; 6 times plate washing between each step. 25 uL stop solution after 4th incubation and record OD at 492 nm.

Row | Binder | OD at 492 nm [1] | OD at 492 nm [2] | OD at 492 nm [3] | OD at 492 nm [4] | OD at 492 nm [5] | OD at 492 nm [6] | OD at 492 nm [7] | OD at 492 nm [8] | OD at 492 nm [9] | OD at 492 nm [10] | OD at 492 nm [11] | OD at 492 nm [12] | binding result [13]
1 | B1 | 0.143 OD | 0.088 OD | 0.347 OD | 0.182 OD | 0.101 OD | 1.83 OD | 0.21 OD | 0.15 OD | > 3 OD | 0.115 OD | 0.095 OD | 0.833 OD | –
2 | B2 | – | – | – | – | – | – | – | – | – | – | – | – | no binding (tested: 1000 ng/mL)

Source: patent US20090176264A1 (ORTHO CLINICAL DIAGNOSTICS, published 2009)
